Measured values from the RNAGym collection of RNA variant scans (doi:10.1073/pnas.2313332121).

B1: TPR t1 (parent)
chain: GACCAAUCUGCCCUCAGAGCUCGAGAACAUCUUCGGAUGCAGAGGAGGCAGGCUUCGGUGGCGCGAUAGCGCCAACGUCCUCAACCUCCAAUGCAUCCCACCACAUGAUGAUGCCUGAAGAGCCUUGGUUUUUUG

Variants of: B1
Test: polymerase ribozyme fitness, log enrichment relative to wild type (log ratio); higher = more active; in vitro selection for triplet polymerase activity
How it was run: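 Each subunit of a heterodimeric triplet polymerase ribozyme was represented by a PCR-built, transcribed mutant library that underwent triplicate single-round in vitro selection with frozen incubation at −7 °C. Extended constructs were recovered by gel excision, streptavidin-bead capture and RT-PCR, and Illumina sequencing of input and output libraries kept genotypes with ≥10 input reads and ≥1 read per output. Fitness is the logarithm of genotype enrichment relative to wild-type enrichment, from inverse-variance-weighted replicate averages, with a logarithm base of 2.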
In the case of C11U U38A G120C, the “polymerase ribozyme fitness (log ratio)” value is reported as 0.779.
With C11U U54C G63U C85A the “polymerase ribozyme fitness (log ratio)” value was -2.46.
With C11U U32A A68C G69U C98A C99A U106A C115G G117C U132A the “polymerase ribozyme fitness (log ratio)” value was -6.55.
With C12A U21A C53A G71U C98U the “polymerase ribozyme fitness (log ratio)” value was -4.86.
For C12A C56A C80U A84U C89U A119G C123A, the “polymerase ribozyme fitness (log ratio)” value was -0.802.
For C11U G48A G61A C86G, the “polymerase ribozyme fitness (log ratio)” value was -1.75.
In the case of C12A A46U G47C A68G U78C C124G, the “polymerase ribozyme fitness (log ratio)” value is reported as -4.93.
With C12A G45C the “polymerase ribozyme fitness (log ratio)” value was -1.32.
For C12A U14A U87A C88U, the “polymerase ribozyme fitness (log ratio)” value was -4.28.
For C11U G42C G63C U130G, the “polymerase ribozyme fitness (log ratio)” value was -3.61.
For C12A C62U A83G A100C, the “polymerase ribozyme fitness (log ratio)” value was -3.89.
For C11U G61A C88G C94G U130C, the “polymerase ribozyme fitness (log ratio)” value was -4.74.
In the case of C11U G120A, the “polymerase ribozyme fitness (log ratio)” value is reported as 0.0588.
With C11U G120C the “polymerase ribozyme fitness (log ratio)” value was 1.11.
For C11U G120U, the “polymerase ribozyme fitness (log ratio)” value was -0.185.
In the case of C12A G61U A66C U78C C80A G107U C114U G127C, the “polymerase ribozyme fitness (log ratio)” value is reported as -6.6.
For C11U U109G, the “polymerase ribozyme fitness (log ratio)” value was -5.84.
In the case of C12A A26G, the “polymerase ribozyme fitness (log ratio)” value is reported as -1.73.
For C12A A37U C114G, the “polymerase ribozyme fitness (log ratio)” value was -3.99.
With C12A G69C A90U U106A the “polymerase ribozyme fitness (log ratio)” value was -4.63.
With C11U G52A U92G C102A G122U the “polymerase ribozyme fitness (log ratio)” value was -6.57.
For C11U U131G, the “polymerase ribozyme fitness (log ratio)” value was -1.44.
In the case of C12A C86U A111U, the “polymerase ribozyme fitness (log ratio)” value is reported as -3.42.
With C12A U33A G48U A74C C94U the “polymerase ribozyme fitness (log ratio)” value was -5.8.
In the case of C12A G61C U78C C80U C82A A121C, the “polymerase ribozyme fitness (log ratio)” value is reported as -7.45.
For C12A U130A, the “polymerase ribozyme fitness (log ratio)” value was -2.22.
For C12A G117A, the “polymerase ribozyme fitness (log ratio)” value was -1.29.
For C11U G47A U87A G93U G113C, the “polymerase ribozyme fitness (log ratio)” value was -4.49.
For C11U G51U, the “polymerase ribozyme fitness (log ratio)” value was -3.04.
In the case of C12A C72U A100C U133G, the “polymerase ribozyme fitness (log ratio)” value is reported as -1.76.
For C12G A26G C98U, the “polymerase ribozyme fitness (log ratio)” value was -3.76.
For C12A C64A, the “polymerase ribozyme fitness (log ratio)” value was -5.04.
For C11U U30A G61U, the “polymerase ribozyme fitness (log ratio)” value was -4.45.
For C11U U78G A95C G113U C114G, the “polymerase ribozyme fitness (log ratio)” value was -4.56.
With C11U U106A G110C C123U the “polymerase ribozyme fitness (log ratio)” value was -2.46.
For C12A C28G C34A C80U C123A, the “polymerase ribozyme fitness (log ratio)” value was -6.06.
For C11U U32G U38G U54C C99G G120C, the “polymerase ribozyme fitness (log ratio)” value was -6.93.
In the case of C11U G71A C98U A105U G110U G122U C124A, the “polymerase ribozyme fitness (log ratio)” value is reported as -7.92.
With C12A C72U A100U the “polymerase ribozyme fitness (log ratio)” value was -2.13.
For C12G A18U G51U A74G C86A C124A, the “polymerase ribozyme fitness (log ratio)” value was -6.6.
For C12A C102U C115A, the “polymerase ribozyme fitness (log ratio)” value was -4.21.
For C12A C94U, the “polymerase ribozyme fitness (log ratio)” value was -0.961.
For C11U G61U C76U A111C, the “polymerase ribozyme fitness (log ratio)” value was -5.8.
For C12A G42U C88G C114U, the “polymerase ribozyme fitness (log ratio)” value was -4.43.
In the case of C12A C89G G93A, the “polymerase ribozyme fitness (log ratio)” value is reported as -2.86.
For C12A G61U U78A U96A, the “polymerase ribozyme fitness (log ratio)” value was -1.84.
For C12A A84U U130A, the “polymerase ribozyme fitness (log ratio)” value was -1.77.
With C11U G19A C49U C56U U59C C114U the “polymerase ribozyme fitness (log ratio)” value was -2.93.
With C12A C64U C72U the “polymerase ribozyme fitness (log ratio)” value was -1.01.
With C12A A84U A95C G135C the “polymerase ribozyme fitness (log ratio)” value was -1.09.
With C11U G36U G117A C124U the “polymerase ribozyme fitness (log ratio)” value was -5.7.
For C12A G57U A91G U96A, the “polymerase ribozyme fitness (log ratio)” value was -3.09.
With C12A A41U G45A C64A U87C A100C U116C the “polymerase ribozyme fitness (log ratio)” value was -6.47.
For C11U G71C, the “polymerase ribozyme fitness (log ratio)” value was -0.699.
With C12G A43G the “polymerase ribozyme fitness (log ratio)” value was -1.17.
For C12A G17U A43U, the “polymerase ribozyme fitness (log ratio)” value was -4.46.
In the case of C12G A18C C80U U112G, the “polymerase ribozyme fitness (log ratio)” value is reported as -3.95.
For C12A A29U C56U, the “polymerase ribozyme fitness (log ratio)” value was -3.33.
For C12A G17U G42U C53G U59C C101A, the “polymerase ribozyme fitness (log ratio)” value was -5.66.
In the case of C12A C22U C56U A83C U125A, the “polymerase ribozyme fitness (log ratio)” value is reported as -4.56.
With C11U G19C G71A U116C A119U G122A the “polymerase ribozyme fitness (log ratio)” value was -6.27.
For C12A U54A G113C U125G, the “polymerase ribozyme fitness (log ratio)” value was -3.66.
In the case of C12A A26C C56G G63U C89G G107A U116C, the “polymerase ribozyme fitness (log ratio)” value is reported as -7.06.
For C12G A26G, the “polymerase ribozyme fitness (log ratio)” value was -1.93.
In the case of C11U G42C A75G U112C A121U G127A, the “polymerase ribozyme fitness (log ratio)” value is reported as -0.694.
In the case of C12A U78A, the “polymerase ribozyme fitness (log ratio)” value is reported as -1.37.
With C12A A74G the “polymerase ribozyme fitness (log ratio)” value was -0.0689.
For C12A A74U, the “polymerase ribozyme fitness (log ratio)” value was -0.922.
In the case of C12A G19U G42U U92A U112C U129G, the “polymerase ribozyme fitness (log ratio)” value is reported as -3.59.
In the case of C12A C86A U112A, the “polymerase ribozyme fitness (log ratio)” value is reported as 0.277.
For C12A G77U C82U, the “polymerase ribozyme fitness (log ratio)” value was -1.87.
In the case of C11U G113C, the “polymerase ribozyme fitness (log ratio)” value is reported as -2.55.
In the case of C12A G60A, the “polymerase ribozyme fitness (log ratio)” value is reported as -1.28.
In the case of C11U G58C G120U, the “polymerase ribozyme fitness (log ratio)” value is reported as 0.332.
For C12A C40U C89A U125A U130G, the “polymerase ribozyme fitness (log ratio)” value was -5.
In the case of C12A C28U G60A G122A U133G, the “polymerase ribozyme fitness (log ratio)” value is reported as -2.67.
For C12A C70A G127U, the “polymerase ribozyme fitness (log ratio)” value was -2.31.
With C11U G127U the “polymerase ribozyme fitness (log ratio)” value was -2.
In the case of C12A U55G C72U U92G, the “polymerase ribozyme fitness (log ratio)” value is reported as -2.88.
For C12A A18U C76G G77U U96A, the “polymerase ribozyme fitness (log ratio)” value was -4.3.
For C12A C20A G61U G120A, the “polymerase ribozyme fitness (log ratio)” value was -1.21.
With C12A A111G the “polymerase ribozyme fitness (log ratio)” value was 0.3.
With C12A G19A C22G A27C U30A C40A A46C C56A C82A U92G U109G the “polymerase ribozyme fitness (log ratio)” value was -8.5.
